Experimental data: patent publication US20260184815A1 (published 2026)

Target: T1, human plasma kallikrein (human, UniProt P03952 20-390; P03952 391-638)
T1 construct: also called pKal; Human pKal
Test: ELISA, biotinylated pKal signal over streptavidin background
Description: Abbreviations used: “T/B” is the ELISA signal obtained using of the “target” (biotinylated plasma kallikrein) divided by the ELISA signal of the “background” (streptavidin); both of which were coated on microtiter plates, “nd” is not determined. The symbol “q” refers to the amber suppressible stop codon (TAG), which is translated as glutamine (Q) in strains of E. coli such as the TG1 cells that were used to express the Fab fragments.

T1 sequence (P03952 20-390, chain 1 of 2): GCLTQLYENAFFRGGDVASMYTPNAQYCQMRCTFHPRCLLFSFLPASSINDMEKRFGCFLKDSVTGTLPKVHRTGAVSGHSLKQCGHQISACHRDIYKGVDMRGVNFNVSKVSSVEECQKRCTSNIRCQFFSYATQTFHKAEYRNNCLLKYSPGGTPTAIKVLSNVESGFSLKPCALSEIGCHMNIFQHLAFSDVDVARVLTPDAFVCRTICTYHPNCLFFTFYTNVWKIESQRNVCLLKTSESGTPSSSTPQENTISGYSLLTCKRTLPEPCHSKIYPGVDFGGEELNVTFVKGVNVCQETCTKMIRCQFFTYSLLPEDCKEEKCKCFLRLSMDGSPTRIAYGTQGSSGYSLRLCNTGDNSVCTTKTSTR
T1 sequence (P03952 391-638, chain 2 of 2): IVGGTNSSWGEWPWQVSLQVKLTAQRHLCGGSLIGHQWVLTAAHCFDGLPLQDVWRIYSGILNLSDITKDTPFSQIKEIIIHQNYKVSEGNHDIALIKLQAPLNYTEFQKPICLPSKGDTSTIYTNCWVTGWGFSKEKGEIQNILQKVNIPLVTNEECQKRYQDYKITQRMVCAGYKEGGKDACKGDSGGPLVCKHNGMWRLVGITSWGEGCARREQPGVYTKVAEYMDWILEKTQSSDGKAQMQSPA

Binder	ELISA (T/B)
M27-B12 (Fab, V domains shown, HC as printed runs into CH1) VH: EVQLLESGGGLVQPGGSLRLSCAASGFTFSWYQMMWVRQAPGKGLEWVSSISPSGGITEYADSVKGRFTISRDNSKNTLYLQMNSLRAEDTAVYYCARDRSSGWYYYGMDVWGQGTTVTVSS VL: QYELTQPPAVSVSPGQTATITCSGDKLGDEYAAWYQQKPGQSPVLVIYQDRKRPSGIPERFSGSNFGNTATLTITGTQVMDEADYYCQAWGKRNVVFGGGTKLTVL	2.3 T/B
M11-G12 (Fab, V domains shown, HC as printed runs into CH1) VH: EVQLLESGGGLVQPGGSLRLSCAASGFTFSQYPMNWVRQAPGKGLEWVSSISSSGGFTTYADSVKGRFTISRDNSKNTLYLQMNSLRAEDTAVYYCAREEQQGGFDYWGQGTLVTVSS VL: DIQMTQSPSSLSAFVGDRVSITCRASQTISVYVNWYQHKSGQAPKLLIYGASSLQSGVPSRFSGSGSGTDFTLTISSLQPEDFATYFCQQSYSIPFTFGGGTDVQIR	4.9 T/B
M11-G09 (Fab, V domains shown, HC as printed runs into CH1) VH: EVQLLESGGGLVQPGGSLRLSCAASGFTFSLYNMTWVRQAPGKGLEWVSYIYPSGGGTHYADSVKGRFTISRDNSKNTLYLQMNSLRAEDTAVYYCARDTGFWSADAFDIWGQGTMVTVSS VL: DIQMTQSPSSLSASVGDRVTITCRTSQGINHYLNWYQQKPGKAPKILVFAASELQTGVPSRFSGTGSGTSYTLTITSLQPEDVATYYCQQTYTSPYTFGQGTKLEVK	23.6 T/B
M12-D10 (Fab, V domains shown, HC as printed runs into CH1) VH: EVQLLESGGGLVQPGGSLRLSCAASGFTFSNYPMDWVRQAPGKGLEWVSSISSSGGWTNYADSVKGRFTISRDNSKNTLYLQMNSLRAEDTAVYYCATDTSGSYLGFDYWGQGTLVTVSS VL: not shown	9.9 T/B
M12-E06 (Fab, V domains shown, HC as printed runs into CH1) VH: EVQLLESGGGLVQPGGSLRLSCAASGFTFSQYKMLWVRQAPGKGLEWVSGIGPSGGLTAYADSVKGRFTISRDNSKNTLYLQMNSLRAEDTAVYYCARAPWFGELGMDVWGQGTTVTVSS VL: DIQMTQSPSSLSASVGDRVSITCRASQSISTYLNWYQHKPGKAPTLLIYGAFSLQSGVPSRFSGSGSGTDFALTISSLQPEDFATYYCQQSHSTPPTFGQGTRVEIK	48 T/B
M11-E05 (Fab, V domains shown, HC as printed runs into CH1) VH: EVQLLESGGGLVQPGGSLRLSCAASGFTFSWYTMGWVRQAPGKGLEWVSWIYFGGLTTYADSVKGRFTISRDNSKNTLYLQMNSLRAEDTAVYYCARLGGPLDAFDIWGQGTMVTVSS VL: DIQMTQSPSSLSASVGDTVTITCRTSQTINNYLNWYQQRPGEAPKVLIYATHTLESGVPSRFSGSGSGTDFTLTIGSLQPEDFATYYCQQSFAFPYTFGQGTKVEIT	41.4 T/B
M11-A10 (Fab, V domains shown, HC as printed runs into CH1; also called Ml1-A10) VH: EVQLLESGGGLVQPGGSLRLSCAASGFTFSNYWMMWVRQAPGKGLEWVSGIGSSGGFTSYADSVKGRFTISRDNSKNTLYLQMNSLRAEDTAVYYCAKGSYSDYGVFESWGQGTLVTVSS VL: DIQMTQSPSSLSASVGDRVAITCRASQSIDTYLNWYQQKPGKAPKLLIYDASNLEIGVPSRFSGSGSGTDFTFIINSLQPEDVATYYCQHYLYAPYSFGQGTKLEIK	25 T/B
M12-C09 (Fab, V domains shown, HC as printed runs into CH1) VH: EVQLLESGGGLVQPGGSLRLSCAASGFTFSSYAMVWVRQAPGKGLEWVSSIGSSGGFTLYADSVKGRFTISRDNSKNTLYLQMNSLRAEDTAVYYCASMNLGGGDAFDIWGQGTMVTVSS VL: DIQMTQSPSSLSASVGDRVTITCRASQSIGIYLNWYHQKPGKAPNLLIYGASSLQSGVPSRFSGSGSGTDFTLTISSLQPGDFATYYCQHSYSTPFTFGGGTKVEIK	7 T/B
M27-A10 (Fab, V domains shown, HC as printed runs into CH1) VH: EVQLLESGGGLVQPGGSLRLSCAASGFTFSWYRMDWVRQAPGKGLEWVSSIWPSGGLTSYADSVKGRFTISRDNSKNTLYLQMNSLRAEDTAVYYCARGWAPGGDAFDIWGQGTMVTVSS VL: DIQMTQSPSSLSASVGDRVTITCRASQSISAYLNWYQQKPGKAPQLLMYGVGSLQSGVPSRFSGSGSGTDFTLTISSLQPEDFATYFCQQGYTTPVTFGGGTKVEIK	3.2 T/B
M27-F04 (Fab, V domains shown, HC as printed runs into CH1) VH: EVQLLESGGGLVQPGGSLRLSCAASGFTFSWYPMTWVRQAPGKGLEWVSSIGPSGGQTIYADSVKGRFTISRDNSKNTLYLQMNSLRAEDTAVYYCTTEYGDYGGGFDPWGQGTLVTVSS VL: not shown	10.5 T/B

Other lines, results leading:

ELISA (T/B)	Binder
40.4 T/B	M12-A08 (Fab, V domains shown, HC as printed runs into CH1) VH: EVQLLESGGGLVQPGGSLRLSCAASGFTFSWYYMGWVRQAPGKGLEWVSWIVSSGGLTLYADSVKGRFTISRDNSKNTLYLQMNSLRAEDTAMYYCARTTVTTGDAFDIWGQGTMVTVSS VL: DIQMTQSPSSLSASVGDRVTITCRASQSISRYLNWYQQKPGKAPKLLIYAASTLETGVPSRFSGSGSGTDFTLTITTLQPEDFVIYYCQQSYSTPYTFGQGTKLEIK
31.4 T/B	M27-G01 (Fab, V domains shown, HC as printed runs into CH1) VH: EVQLLESGGGLVQPGGSLRLSCAASGFTFSLYRMFWVRQAPGKGLEWVSSIWSSGGPTMYADSVKGRFTISRDNSKNTLYLQMNSLRAEDTAVYYCAREYPSTYYFDYWGQGTLVTVSS VL: DIQMTQSPSSLSASVGDRVTITCRASQSISTYLNWYQQKPGKAPKLLIYGASSLQSGVPSRFSGSGSGTDFTLTISSLQPEDFTIYYCQQSYSDPYTFGQGTKLDIK
7.1 T/B	M10-G09 (Fab, V domains shown, HC as printed runs into CH1) VH: EVQLLESGGGLVQPGGSLRLSCAASGFTFSQYGMQWVRQAPGKGLEWVSSIRSSGGATRYADSVKGRFTISRDNSKNTLYLQMNSLRAEDTAVYYCARDGYYDSSGYPDYWGQGTLVTVSS VL: DIQMTQSPSSLSASVGDSVTITCRASQSISGYINWYQQKAGKAPKLLIYAASSLQSGVPSRFSGSGSGTHFTLTISSLQPEDFATYYCQQYVSYPFTFGPGTKVDIK
35.9 T/B	M27-E03 (Fab, V domains shown, HC as printed runs into CH1) VH: EVQLLESGGGLVQPGGSLRLSCAASGFTFSSYMMHWVRQAPGKGLEWVSGIYPSGGWTDYADSVKGRFTISRDNSKNTLYLQMNSLRAEDTATYYCARLVAGLDAFDIWGQGTMVTVSS VL: not shown
8.3 T/B	M12-C10 (Fab, V domains shown, HC as printed runs into CH1) VH: EVQLLESGGGLVQPGGSLRLSCAASGFTFSDYEMHWVRQAPGKGLEWVSGISPSGGKTQYADSVKGRFTISRDNSKNTLYLQMNSLRAEDTAVYYCARDLKWGGRGSPDWYFDLWGRGTLVTVSS VL: QSALTQPPSVSVSPGQTASITCSGDKLGEKYVSWYQQKPGQSPVVVIYQDNKRPSGIPERFSGSNSGNTATLTISGTQAVDEADYYCQAWDSYTVVFGGGSKLTVLG
4.1 T/B	M27-G04 (Fab, V domains shown, HC as printed runs into CH1) VH: EVQLLESGGGLVQPGGSLRLSCAASGFTFSAYYMVWVRQAPGKGLEWVSYISPSGGQTQYADSVKGRFTISRDNSKNTLYLQMNSLRAEDTAVYYCAREAISSSSFDYWGQGTLVTVSS VL: DIQMTQSPSSLSASVGDRVTITCRASQRISYYLTWYQQKPGKVPKLLIYAASSLESGVPSRFSGSGSGTDFTLTISNLQPEDFATYYCQQAFSTPFTFGGGTKVEIK
10 T/B	M27-F11 (Fab, V domains shown, HC as printed runs into CH1) VH: EVQLLESGGGLVQPGGSLRLSCAASGFTFSSYHMMWVRQAPGKGLEWVSSIYPSGGATMYADSVKGRFTISRDNSKNTLYLQMNSLRAEDTAMYYCARDGYHYGDYTYFQHWGQGTLVTVSS VL: DIQMTQSPSFLSASVGDRVTITCRASQGISSYLAWYQQKPGKAPKLLIYAASSLQSGVPSRFSGSGSGTDFTLTISSLQPEDFATYYCQQSYNTLRTFGPGTKVDLK
2.2 T/B	M27-G09 (Fab, V domains shown, HC as printed runs into CH1) VH: EVQLLESGGGLVQPGGSLRLSCAASGFTFSEYDMAWVRQAPGKGLEWVSYIVSSGGFTSYADSVKGRFTISRDNSKNTLYLQMNSLRAEDTAVYYCTTWAGWIAAADYWGQGTLVTVSS VL: DIQMTQSPSSVSASVGDRITITCRTRQSISNYLNWYQQKPGEPPKLLIFAASSLQSGVPSRFSGSGTGTEFTLTISSLQPEDLAIYYCQQSYDIPFTFGQGTKLEIK
18 T/B	M12-B04 (Fab, V domains shown, HC as printed runs into CH1) VH: EVQLLESGGGLVQPGGSLRLSCAASGFTFSLYSMYWVRQAPGKGLEWVSRIRPSGGGTVYADSVKGRFTISRDNSKNTLYLQMNSLRAEDTAVYYCARDPLYSSGDVWGQGTTVTVSS VL: DIQMTQSPSSLSASVGDRVTITCRASQGIRNDLGWYQHKPGKAPKLLIYAASILQSGVPSRFSGTASGTDFTLTISSLQPEDFATYFCLQDYEYPLTFGGGTKLDIK
33.1 T/B	M27-B01 (Fab, V domains shown, HC as printed runs into CH1) VH: EVQLLESGGGLVQPGGSLRLSCAASGFTFSDYTMWWVRQAPGKGLEWVSSISSSGGITFYADSVKGRFTISRDNSKNTLYLQMNSLRAEDTAVYYCARSADTAMGGAFDIWGQGTMVTVSS VL: not shown
12.6 T/B	M11-E06 (Fab, V domains shown, HC as printed runs into CH1) VH: EVQLLESGGGLVQPGGSLRLSCAASGFTFSQYAMHWVRQAPGKGLEWVSSIYPSGGFTLYADSVKGRFTISRDNSKNTLYLQMNSLRAEDTAMYYCARGGWLAGGELLNWGQGTLVTVSS VL: DIQMTQSPSSLSASIGDRVTISCRASRGIGTYLNWYQQHAGKAPKLLIRAASSLETGVPPRFSGSGSGTDFTLTISSLQSDDFATYYCQESFTNVYNFGQGTKLEIK
11.7 T/B	M11-E01 (Fab, V domains shown, HC as printed runs into CH1) VH: EVQLLESGGGLVQPGGSLRLSCAASGFTFSTYEMYWVRQAPGKGLEWVSGIGSSGGMTMYADSVKGRFTISRDNSKNTLYLQMNSLRAEDTAMYYCAREQPGIAALQFWGQGTLVTVSS VL: not shown
43.2 T/B	M11-E04 (Fab, V domains shown, HC as printed runs into CH1) VH: EVQLLESGGGLVQPGGSLRLSCAASGFTFSMYHMNWVRQAPGKGLEWVSGIVSSGGVTFYADSVKGRFTISRDNSKNTLYLQMNSLRAEDTAVYYCARITTVTTGGAFDIWGQGTMVTVSS VL: DIQMTQSPSSLSASVGDRVTITCRASQSISIYLTWYQHRPGKAPNLLIYGAATLQTGVPSRFSGSGSGTDFTLTIRGLQPEDFATYYCQQTFSLPRTFGQGTKLEIK
